± gives the uncertainty stated by the source.

The series in a line: amyloid nucleation score (Sup35N fusion, yeast selection) (log enrichment); library NNK2; higher = more nucleation; inactive = no reads after selection. A digest of the protocol:
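Nucleation score: DiMSum log enrichment of output over input reads, centred on the mode score of non-aggregating sequences. Only sequences with at least 100 input reads were kept. Reads came from Illumina sequencing of plasmid inserts before and after 7 days of growth at 30°C without adenine and uracil, in psi-negative yeast expressing Sup35N fused to peptides of 20 random codons after 24 hours of induction with 100 μM copper sulfate.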
With FCGIGSPHYGRSAALQLRLM, the amyloid nucleation score stood at 0.708 ± 0.37.

Consider ACYIR, for which the amyloid nucleation score was 1.02 ± 0.17.

Regarding DSRCIDTVFNWYEHTSSRYR, the amyloid nucleation score was -0.287 ± 0.55.

On to FSEFIYLCTSLMDARQGMVP, for which the amyloid nucleation score is -0.804 ± 1.1.

As for TFSQYTWEFIYN, the amyloid nucleation score was 3.68 ± 0.11.

As for LCDIIQAF, the amyloid nucleation score is -0.626 ± 1.1.

Regarding AFLRLRWNSNPVISGTRNRR, the amyloid nucleation score is 0.777 ± 0.48.

Regarding YNIIYWFLYKVQAWSVCSWG, the amyloid nucleation score is 5.31 ± 0.077.

On to QDEHIMVIVKLRRYTFNWEL, for which the amyloid nucleation score was found to be 2.86 ± 0.11.

VLPMVRMSINIVVGCWSQKL came in with an amyloid nucleation score of 3.79 ± 0.081.

With NPALVFIHA, the amyloid nucleation score entry is “inactive”.

Regarding VTKSYITRSVFSVGNYSETS, the amyloid nucleation score was -0.226 ± 1.1.

The substance FRSHCWL yielded an amyloid nucleation score of 0.285 ± 0.41.

With IYVECWRHRLILCIHA, the amyloid nucleation score is 0.214 ± 0.49.

For the substance KAYLH, the amyloid nucleation score was -0.427 ± 0.78.

RKATQIPMSVSMER came in with an amyloid nucleation score of 1.45 ± 0.4.

With MTRVSQFVVVP, the amyloid nucleation score stood at 1.69 ± 0.13.

YVIQMYLSEATGCYVFTYFF yielded an amyloid nucleation score of 0.368 ± 0.33.

On to NCETLCVLVGAQYC, for which the amyloid nucleation score worked out at 4.13 ± 0.049.

With NKRSCNGCGSRAHQDSL, the amyloid nucleation score is -0.176 ± 1.1.

As for VGVVGYVETSLLGLRRCG, the amyloid nucleation score is -0.976 ± 0.54.

As to SNNHND, the amyloid nucleation score result was “inactive”.

In the case of NRIFGTHLTFSGYS, the amyloid nucleation score was -0.466 ± 0.5.

Take SVGIVSSDRCLCLMSM: the amyloid nucleation score is 1.3 ± 0.39.

As for SLPPLMWGAMMRRRRRGSST, the amyloid nucleation score is 5.717 ± 0.056.

Take VNRDRAQLWVACITCRCNFR: the amyloid nucleation score was 8.986 ± 0.049.

On to FYFKRQNNNDQVIVTHTT, for which the amyloid nucleation score is -0.103 ± 0.61.

Regarding VNRSTELHFIVMREMVWLKS, the amyloid nucleation score is -0.287 ± 0.62.

Take IHYFRTWVYHYGLRGFGIIR: the amyloid nucleation score was 0.918 ± 0.58.

Consider SFIGLETCQFSFHLIF, for which the amyloid nucleation score worked out at 4.15 ± 0.092.

AWRAYITILGKDHAVSVSGL showed an amyloid nucleation score of 0.715 ± 0.43.

Consider RMLGFD, for which the amyloid nucleation score is -0.147 ± 1.1.

For EKFESERISFRAMGQGEVLR, the amyloid nucleation score worked out at 4.61 ± 0.079.

Regarding VSFWFVFFWMISTRSEMMDR, the amyloid nucleation score was -1.08 ± 0.53.

As to VIYRSNLASRGMNHAVFSKR, the amyloid nucleation score was -0.92 ± 0.28.

For the substance NLLYKMTMWTKFGRLSSCCK, the amyloid nucleation score is 0.001 ± 0.42.

As to LVLRQLVR, the amyloid nucleation score entry was “inactive”.

Turning to HRRSFGSQMYL, the amyloid nucleation score entry is “inactive”.

SYVVPGFISASFYLCYCTSK came in with an amyloid nucleation score of 3.03 ± 0.12.

Take NNDGTPDPNM: the amyloid nucleation score was -0.237 ± 0.63.

In the case of QCLQCGP, the amyloid nucleation score is -0.553 ± 0.49.

The substance DYDEIMRLMLWSSLLLFR returned an amyloid nucleation score of 0.47 ± 0.34.

For CILSYVQEMTMEPYLSKSLS, the amyloid nucleation score was -0.296 ± 0.76.

In the case of LFGNWSFVVNRCVVSLKLM, the amyloid nucleation score result is “inactive”.

Regarding ITFMVLM, the amyloid nucleation score worked out at 6.6 ± 0.074.

VLREDSIELWPDGTVGGRTG yielded an amyloid nucleation score of 1.35 ± 0.37.

DYANELVA: the amyloid nucleation score is 0.099 ± 0.25.

As to VIAVCLVLVSSDVKIGTRMG, the amyloid nucleation score turned out to be 1.84 ± 0.16.

AQLRKMSSVNYV: the amyloid nucleation score is -0.825 ± 1.1.

Take HCSWLYVLSYVSMSNICIGY: the amyloid nucleation score was -0.876 ± 0.76.

FLVNVFM registered an amyloid nucleation score of 8.001 ± 0.025.

Substance SGHTFVFFYDSK gave an amyloid nucleation score of 5.95 ± 0.061.

For the substance FWQNCMALLFRFIMFKRKNV, the amyloid nucleation score was -1.27 ± 1.

Regarding WYKKATNSVLANVGQDFVVK, the amyloid nucleation score is -0.41 ± 0.36.

With WFIILRLIYVYGTNCAVYMV, the amyloid nucleation score is -0.003 ± 0.42.

Turning to CLDVLLDKGSADIYFRQSSN, the amyloid nucleation score was -1.06 ± 0.61.

The substance NHSVTWLPD registered an amyloid nucleation score of 1.27 ± 0.41.

For SLSWLWFLNSKSRMSTDISV, the amyloid nucleation score result was “inactive”.

As for LFGHRFPSYL, the amyloid nucleation score is -0.152 ± 1.

In turn, AMGNKREKVL came in with an amyloid nucleation score of 0.601 ± 0.44.

On to YDLDEGYSLMFVPQEQICAE, for which the amyloid nucleation score entry was “inactive”.

The substance VEMRLGRDEIFNRHQKGIYA yielded an amyloid nucleation score of 2.02 ± 0.36.

Regarding ELALGIHYPFNKLYDINKGC, the amyloid nucleation score is -1.5 ± 0.35.

With PVLYFLGLSMVDNTITRSTA, the amyloid nucleation score was -0.763 ± 0.34.

DGFHQCAS: the amyloid nucleation score was 3.74 ± 0.089.

QKNTSQCFVLSW returned an amyloid nucleation score of 0.129 ± 0.49.

Consider PCCVKSELGLPQWWSVYL, for which the amyloid nucleation score was 5.645 ± 0.056.

For HIWTEVFIYVCSWRLYTTRV, the amyloid nucleation score is -1.48 ± 0.64.

For the substance RSRDRGRCWFMMSRGMGGVA, the amyloid nucleation score came to 0.483 ± 0.56.

LFIICNSVVHMDLASVGNVS: the amyloid nucleation score worked out at 8.409 ± 0.043.

Regarding PNVAIYIPTGYGLTVTPPAS, the amyloid nucleation score is -1.02 ± 0.76.

Turning to KVGERISPELSGMFYGTLWY, the amyloid nucleation score is -0.305 ± 0.74.

For the substance SAMQFRSFF, the amyloid nucleation score was found to be 0.94 ± 0.34.

Consider IPSRFPNFNR, for which the amyloid nucleation score is -1.62 ± 0.55.

Regarding SFGRAENNSSARDMYV, the amyloid nucleation score is -0.535 ± 0.28.

Take LDNYCFHAASYSQHNSSTGP: the amyloid nucleation score stood at 0.804 ± 0.46.

ASLLSGFNFKSVRHGLRDLG registered an amyloid nucleation score of 0.568 ± 0.24.

Take TCGLFTA: the amyloid nucleation score is 1.2 ± 0.44.

Take ASGCLASEDKMGVYLWVV: the amyloid nucleation score worked out at 0.171 ± 0.65.

In turn, IVFLCSRKCNVNMYGL registered an amyloid nucleation score of 10.7 ± 0.071.

As to FIYCVTFVDDCRYVINLRGT, the amyloid nucleation score was found to be 7.964 ± 0.079.

SGNAGLFNRARGSVVTAVLV: the amyloid nucleation score is 0.463 ± 0.64.

The substance KWDHPKEVFCSVRTSGRGVE displayed an amyloid nucleation score of 2.04 ± 0.072.

In the case of NPYIINLFCYKIVRLGAIFT, the amyloid nucleation score is 4.14 ± 0.068.

ISDGCCGMLNAYCFTLVNCK had an amyloid nucleation score of 4.18 ± 0.062.

Substance SWVLLAY showed an amyloid nucleation score of 0.45 ± 0.8.

Regarding LVISLSISCAGKRVAQSHMG, the amyloid nucleation score was -0.951 ± 0.76.

The substance QYVEFPLMLTET showed an amyloid nucleation score of 0.025 ± 0.79.

On to VVSTSYIGGKKRSFCVRCGG, for which the amyloid nucleation score is -0.73 ± 0.49.

For LFESMPGCDDSNELIFWGIA, the amyloid nucleation score is -0.722 ± 0.28.

Turning to CGCCRTRGL, the amyloid nucleation score came to 2.94 ± 0.054.

SLFDFAVFNMNYESNACISR had an amyloid nucleation score of 0.451 ± 0.27.

IRNILWVLPKVVSDAFI: the amyloid nucleation score was determined as 0.325 ± 0.57.

As to IYSEWLSLVYSLGAPVTLNS, the amyloid nucleation score was -0.015 ± 0.46.

Substance CWPCRMMKLVREESAVYTGG had an amyloid nucleation score of 0.062 ± 0.34.

As to TCNSGRYSRAACAWWN, the amyloid nucleation score is -0.114 ± 0.45.

With MWLGLTRRMVITSCYN, the amyloid nucleation score came out at 0.461 ± 0.36.

As to NAYVEIIIWASRDFMYCRHM, the amyloid nucleation score is -0.262 ± 0.79.

As to FAIRYTVMTLFCIRLGLLKV, the amyloid nucleation score was -0.707 ± 0.27.

In the case of ILKIYVGQSSPLYFACLHIK, the amyloid nucleation score result is “inactive”.

DGGREPIVFYSQNYVCNKFV: the amyloid nucleation score amounted to 6.775 ± 0.048.

For SIMGYGFDVRCELCDVTGGW, the amyloid nucleation score is -0.079 ± 0.53.

Turning to KGFEIFSSFTLYV, the amyloid nucleation score is -0.684 ± 0.55.

With RITPFWYQRIYRIMY, the amyloid nucleation score was -0.339 ± 0.22.

SRSSTCGSRGLTGNRGGGIG: the amyloid nucleation score was 0.299 ± 0.45.

Regarding DRTGGPIWVVGYPARGRAAL, the amyloid nucleation score stood at 0.99 ± 0.29.

GRYVNCGRSLRICSINLTKI: the amyloid nucleation score is -1.31 ± 0.55.

Turning to GSIYTCCGAGRKQNVGPKYL, the amyloid nucleation score worked out at 2.25 ± 0.1.

HGKCVFGLPVLLQWKLGDQT yielded an amyloid nucleation score of 0.607 ± 0.57.

The substance LFIDLEMLFSPRN gave an amyloid nucleation score of 5.471 ± 0.048.

In the case of CPSLRGVVVRSLSTGSSDAR, the amyloid nucleation score is 0.163 ± 0.56.

Consider LCIPSVTTDS, for which the amyloid nucleation score result was “inactive”.

Take CILRPSLSFFHMPLR: the amyloid nucleation score worked out at 6.962 ± 0.033.

As for SYFDMWIGW, the amyloid nucleation score turned out to be 1.2 ± 0.47.

Take LFAYYGWVFYMSIRCVHMGM: the amyloid nucleation score is -0.583 ± 1.1.

For the substance ADHELVVITDVGFRLGSTGD, the amyloid nucleation score was -0.226 ± 0.37.

With IVDSIFTFGTRVDGWLGDCA, the amyloid nucleation score was -0.259 ± 0.32.

RWDCGGGTNCSGENIWQGET: the amyloid nucleation score is -0.083 ± 0.34.

Substance RASMVDF gave an amyloid nucleation score of 0.108 ± 0.65.

Turning to KIISNSFCSPCINSILPSKM, the amyloid nucleation score was 6.826 ± 0.053.

For ITIYQYTNYLYGSWCNHLML, the amyloid nucleation score was 0.157 ± 1.

For the substance VSHILINVSRGLRGS, the amyloid nucleation score is -0.261 ± 0.8.

The substance WRKRYEYTVRVGRSAKSTLM registered an amyloid nucleation score of 0.455 ± 0.37.

For the substance CRGTIWIAYSRYYYYRMNDF, the amyloid nucleation score result is “inactive”.

Turning to YKFRYWAYFFSDVAGVI, the amyloid nucleation score was -1.75 ± 0.75.

PMNFYYIAPNICGLREKLWS came in with an amyloid nucleation score of 3.62 ± 0.064.

On to VTCASWYYGKISGLYACYRL, for which the amyloid nucleation score stood at 0.641 ± 0.34.

Turning to YSYTTVFNIASNTTNELATC, the amyloid nucleation score was -0.375 ± 0.2.

Consider RCFSRNFEECFENAYTWV, for which the amyloid nucleation score was -1.07 ± 0.33.

As for LILSSSSLVGVALRRVYCVT, the amyloid nucleation score is -0.809 ± 0.34.

Regarding IKWSLHRYYFVMFICSFIAS, the amyloid nucleation score was -0.83 ± 0.61.

On to LCMCLRNMLSPAMVVTSNPP, for which the amyloid nucleation score was 0.737 ± 0.2.

For the substance LTRPCITV, the amyloid nucleation score was found to be 0.193 ± 0.55.

Turning to SDTKCLHY, the amyloid nucleation score result is “inactive”.

As to HMSGLNGLGCLGTCLWLCSS, the amyloid nucleation score entry was “inactive”.

On to NFCLARRYTYIKSPFCVSGK, for which the amyloid nucleation score came to 0 ± 0.56.

Turning to GYVFASSVD, the amyloid nucleation score came out at 0.791 ± 0.81.

Regarding RMCMAIKERSY, the amyloid nucleation score stood at 0.508 ± 0.38.

Consider DLWRY, for which the amyloid nucleation score turned out to be 0.102 ± 0.77.

With NFADWTCFDIQVR, the amyloid nucleation score is -0.186 ± 0.32.

DANTRGHSCRNCM had an amyloid nucleation score of 0.195 ± 0.76.
